By kcat/Km is commonly meant the turnover number divided by the Michaelis constant.

A value given as a limit tells only on which side of the number the result lay.

In data set [1] the test system is CC(=O)N1CCC[C@H]1C(=O)N[C@@H](CC(C)C)C(=O)NCC(=O)N[C@@H](CCc1ccccc1)C(=O)N[C@@H](Cc1ccc(O)cc1)C(=O)N[C@@H](CC(C)C)C(=O)NNC(=O)c1ccc(N/N=C/c2ccccc2S(=O)(=O)ON)nc1. The experiment in a line: Kinetic measurements of substrate hydrolysis by active MMP-9 (radio HPLC assay). Type of data set: biochemical, human. To be noted: other: active MMP-9 final concentration 2 nM, 37° C., 60 minutes, radiolabeled test substrate, pH 7.5.
Method: (§1) Purified MMP-2 (10 μg) or MMP-9 (10 μg) were reconstituted in 100 μL of TCN buffer. […] Pro-MMP-2 was activated by incubation with 2 nM APMA for 2 hours at 37° C. At the end of incubation 100 μl of 100% glycerol was added to active MMP-2 and active MMP-9 (final concentration 50% glycerol). Active MMP-2 and active MMP-9 were aliquoted and stored at −20° C.
(§2) The level of active protease was always quantified by active site titration studies prior to kinetic studies. The active site of MMP-9 and MMP-2 was titrated using the GM6001 dissolved in 100% DMSO at a stock concentration of 2.5 mM. Dilutions (1:2) of GM6001 were prepared in TCN buffer to give a final concentration of 5 nM to 0.04 nM GM6001 in the active site titration assay. Activated MMP-2 or activated MMP-9 (2 nM) was preincubated with increasing concentrations of GM60001 at 37° C. for 15 minutes in 96 well black microtiter plates. […] Plates were read on fluorescence spectrophotometer at excitation wavelength of 320 nm and emission wavelength of 395 nm. The concentration of the active enzyme was determined using the Morrison equation and Kaleidagraph software (Reading, Pa.).
(§3) The kinetic parameters of substrate hydrolysis were determined using a radio HPLC assay. The turnover of different substrates by active MMP-2 and active MMP-9 was determined using this assay. […] The radiolabel was detected by a IN/US beta ram detector. […]

Data set [2] has as its system CC(=O)N1CCC[C@H]1C(=O)N[C@@H](CCCN)C(=O)NCC(=O)N[C@@H](CCc1ccccc1)C(=O)N[C@@H](CC(C)C)C(=O)NNC(=O)c1ccc(N/N=C/c2ccccc2S(=O)(=O)O)nc1. The data set is described as above. The note with it: other: active MMP-9 final concentration 2 nM, 37° C., 60 minutes, radiolabeled test substrate, pH 7.5. It is filed as biochemical, human.
Method: as §1, §2, §3

Sequence of MMP-9 (Homo sapiens) (chain, as listed by the source): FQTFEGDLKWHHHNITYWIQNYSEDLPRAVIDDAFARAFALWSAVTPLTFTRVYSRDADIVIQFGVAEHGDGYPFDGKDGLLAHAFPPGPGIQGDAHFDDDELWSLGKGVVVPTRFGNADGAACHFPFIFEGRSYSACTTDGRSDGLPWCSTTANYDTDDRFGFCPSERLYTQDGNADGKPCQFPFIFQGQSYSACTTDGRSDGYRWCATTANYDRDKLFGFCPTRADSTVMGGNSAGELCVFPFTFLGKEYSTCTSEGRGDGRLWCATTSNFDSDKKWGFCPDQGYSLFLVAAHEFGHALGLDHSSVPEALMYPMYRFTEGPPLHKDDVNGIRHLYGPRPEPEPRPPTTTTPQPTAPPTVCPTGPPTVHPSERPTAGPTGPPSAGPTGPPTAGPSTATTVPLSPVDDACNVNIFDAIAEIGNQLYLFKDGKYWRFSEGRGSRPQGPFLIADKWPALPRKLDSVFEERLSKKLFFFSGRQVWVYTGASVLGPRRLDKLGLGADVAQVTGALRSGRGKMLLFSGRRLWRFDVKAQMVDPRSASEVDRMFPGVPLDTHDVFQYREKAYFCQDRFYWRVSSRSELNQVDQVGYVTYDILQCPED

MMP-9 (Homo sapiens): the results for the kcat/Km in data set [1] and in data set [2] were over 100000 M⁻¹ s⁻¹ and 4450 M⁻¹ s⁻¹, respectively.

These data come from US20050106100A1, “Compounds containing matrix metalloproteinase substrates and methods of their use” (priority 2003, published 2005).
